The text below walks through data of publication doi:10.1101/2024.10.01.616120 (bioRxiv, 2024).

As a reminder, the IC50 is the point on the concentration scale where inhibition reaches its midpoint. A higher IC50 goes with weaker potency in that assay.

This assay concerns the target valosin-containing protein (VCP)/p97 (UniProt P55072 1-806, labeled with Terbium (CoraFluor), DOL 0.33, in the TR-FRET assays). Nature of the assay: FRET or BRET. (Bioluminescence resonance energy transfer reports proximity on the nanometre scale.)

Sequence of valosin-containing protein (VCP)/p97 (P55072 whole entry): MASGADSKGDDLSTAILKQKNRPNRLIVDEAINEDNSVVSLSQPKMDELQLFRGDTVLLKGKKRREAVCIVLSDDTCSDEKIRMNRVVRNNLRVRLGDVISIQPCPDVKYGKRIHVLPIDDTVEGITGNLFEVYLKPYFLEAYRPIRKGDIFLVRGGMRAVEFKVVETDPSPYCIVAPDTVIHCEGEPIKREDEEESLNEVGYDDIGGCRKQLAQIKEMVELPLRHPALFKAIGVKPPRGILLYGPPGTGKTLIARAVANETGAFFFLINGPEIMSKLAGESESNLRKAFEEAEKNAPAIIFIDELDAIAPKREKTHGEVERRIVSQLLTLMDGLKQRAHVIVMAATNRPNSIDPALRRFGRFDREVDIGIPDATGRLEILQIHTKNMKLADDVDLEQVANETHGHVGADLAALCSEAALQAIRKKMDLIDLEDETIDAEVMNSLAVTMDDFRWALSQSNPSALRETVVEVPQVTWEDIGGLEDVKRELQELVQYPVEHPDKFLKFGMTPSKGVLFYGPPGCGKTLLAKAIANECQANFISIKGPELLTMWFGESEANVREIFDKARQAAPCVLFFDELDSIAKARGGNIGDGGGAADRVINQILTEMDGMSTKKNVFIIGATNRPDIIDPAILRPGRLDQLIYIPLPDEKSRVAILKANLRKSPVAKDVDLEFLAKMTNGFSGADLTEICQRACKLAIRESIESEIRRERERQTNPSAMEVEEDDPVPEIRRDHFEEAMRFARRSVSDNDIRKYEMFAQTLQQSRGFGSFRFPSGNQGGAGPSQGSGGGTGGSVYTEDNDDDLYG

B1: p47 (natural protein)
chain: MAAERQEALREFVAVTGAEEDRARFFLESAGWDLQIALASFYEDGGDEDIVTISQATPSSVSRGTAPSDNRVTSFRDLIHDQDEDEEEEEGQRFYAGGSERSGQQIVGPPRKKSPNELVDDLFKGAKEHGAVAVERVTKSPGETSKPRPFAGGGYRLGAAPEEESAYVAGEKRQHSSQDVHVVLKLWKSGFSLDNGELRSYQDPSNAQFLESIRRGEVPAELRRLAHGGQVNLDMEDHRDEDFVKPKGAFKAFTGEGQKLGSTAPQVLSTSSPAQQAENEAKASSSILIDESEPTTNIQIRLADGGRLVQKFNHSHRISDIRLFIVDARPAMAATSFILMTTFPNKELADESQTLKEANLLNAVIVQRLT
The molecule B1 registered an IC50 of 20.4 ± 2.8 nM.

B2: valosin contain protein p97/p47 interacting protein 1 (VCPIP1), wild type (enzyme)
chain: MSQPPPPPPPLPPPPPPPEAPQTPSSLASAAASGGLLKRRDRRILSGSCPDPKCQARLFFPASGSVSIECTECGQRHEQQQLLGVEEVTDPDVVLHNLLRNALLGVTGAPKKNTELVKVMGLSNYHCKLLSPILARYGMDKQTGRAKLLRDMNQGELFDCALLGDRAFLIEPEHVNTVGYGKDRSGSLLYLHDTLEDIKRANKSQECLIPVHVDGDGHCLVHAVSRALVGRELFWHALRENLKQHFQQHLARYQALFHDFIDAAEWEDIINECDPLFVPPEGVPLGLRNIHIFGLANVLHRPIILLDSLSGMRSSGDYSATFLPGLIPAEKCTGKDGHLNKPICIAWSSSGRNHYIPLVGIKGAALPKLPMNLLPKAWGVPQDLIKKYIKLEEDGGCVIGGDRSLQDKYLLRLVAAMEEVFMDKHGIHPSLVADVHQYFYRRTGVIGVQPEEVTAAAKKAVMDNRLHKCLLCGALSELHVPPEWLAPGGKLYNLAKSTHGQLRTDKNYSFPLNNLVCSYDSVKDVLVPDYGMSNLTACNWCHGTSVRKVRGDGSIVYLDGDRTNSRSTGGKCGCGFKHFWDGKEYDNLPEAFPITLEWGGRVVRETVYWFQYESDSSLNSNVYDVAMKLVTKHFPGEFGSEILVQKVVHTILHQTAKKNPDDYTPVNIDGAHAQRVGDVQGQESESQLPTKIILTGQKTKTLHKEELNMSKTERTIQQNITEQASVMQKRKTEKLKQEQKGQPRTVSPSTIRDGPSSAPATPTKAPYSPTTSKEKKIRITTNDGRQSMVTLKSSTTFFELQESIAREFNIPPYLQCIRYGFPPKELMPPQAGMEKEPVPLQHGDRITIEILKSKAEGGQSAAAHSAHTVKQEDIAVTGKLSSKELQEQAEKEMYSLCLLATLMGEDVWSYAKGLPHMFQQGGVFYSIMKKTMGMADGKHCTFPHLPGKTFVYNASEDRLELCVDAAGHFPIGPDVEDLVKEAVSQVRAEATTRSRESSPSHGLLKLGSGGVVKKKSEQLHNVTAFQGKGHSLGTASGNPHLDPRARETSVVRKHNTGTDFSNSSTKTEPSVFTASSSNSELIRIAPGVVTMRDGRQLDPDLVEAQRKKLQEMVSSIQASMDRHLRDQSTEQSPSDLPQRKTEVVSSSAKSGSLQTGLPESFPLTGGTENLNTETTDGCVADALGAAFATRSKAQRGNSVEELEEMDSQDAEMTNTTEPMDHS
modifications: labeled with BODIPY, DOL 0.23, as the labelled partner in the TR-FRET assays; unlabeled as competitor
In turn, B2 showed an IC50 of 74.5 ± 13.9 nM.
